The assay has as its target T1, Itc1p (yeast, UniProt P53125 1-1264).
T1 construct: Co-expressed with Isw2p in insect cells from MultiBac baculovirus; also called 145 kDa Itc1p; subunit of the yeast Isw2 chromatin remodelling complex
T1 sequence (looked up): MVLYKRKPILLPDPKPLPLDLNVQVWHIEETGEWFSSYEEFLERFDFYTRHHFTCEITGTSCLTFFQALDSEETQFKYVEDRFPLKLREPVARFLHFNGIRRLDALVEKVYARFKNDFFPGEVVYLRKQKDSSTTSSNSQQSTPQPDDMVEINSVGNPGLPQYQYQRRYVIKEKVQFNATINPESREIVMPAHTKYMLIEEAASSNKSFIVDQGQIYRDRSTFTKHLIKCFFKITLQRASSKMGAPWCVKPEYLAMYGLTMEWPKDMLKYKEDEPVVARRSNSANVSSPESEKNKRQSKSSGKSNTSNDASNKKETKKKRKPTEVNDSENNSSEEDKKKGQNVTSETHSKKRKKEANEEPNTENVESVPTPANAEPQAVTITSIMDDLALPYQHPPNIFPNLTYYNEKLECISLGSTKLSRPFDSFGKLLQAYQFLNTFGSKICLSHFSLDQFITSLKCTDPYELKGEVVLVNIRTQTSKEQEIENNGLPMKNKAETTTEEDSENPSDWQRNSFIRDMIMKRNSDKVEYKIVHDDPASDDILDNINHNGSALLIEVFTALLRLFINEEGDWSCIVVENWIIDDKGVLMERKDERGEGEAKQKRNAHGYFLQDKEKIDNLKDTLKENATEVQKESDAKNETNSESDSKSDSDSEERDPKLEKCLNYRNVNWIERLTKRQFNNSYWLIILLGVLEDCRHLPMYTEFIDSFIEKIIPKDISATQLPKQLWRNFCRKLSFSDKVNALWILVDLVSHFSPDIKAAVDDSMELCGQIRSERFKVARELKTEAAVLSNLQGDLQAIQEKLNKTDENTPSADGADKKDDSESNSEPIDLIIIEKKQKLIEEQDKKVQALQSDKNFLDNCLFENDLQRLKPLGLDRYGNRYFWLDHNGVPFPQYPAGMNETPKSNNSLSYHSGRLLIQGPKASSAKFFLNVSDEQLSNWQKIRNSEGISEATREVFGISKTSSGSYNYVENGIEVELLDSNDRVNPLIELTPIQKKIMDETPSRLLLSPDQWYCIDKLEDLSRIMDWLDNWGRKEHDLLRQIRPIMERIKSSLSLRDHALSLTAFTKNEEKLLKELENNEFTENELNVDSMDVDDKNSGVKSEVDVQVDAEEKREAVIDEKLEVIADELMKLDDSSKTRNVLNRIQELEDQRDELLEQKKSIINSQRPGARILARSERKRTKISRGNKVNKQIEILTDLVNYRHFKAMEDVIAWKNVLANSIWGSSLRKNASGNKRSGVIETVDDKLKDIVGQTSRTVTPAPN
Briefly: co-expression in insect cells from MultiBac baculovirus; complex purified (FIG. 8). The text has this: In a test experiment the yeast Isw2 chromatin remodelling complex consisting of the 130 kDa Isw2p and the 145 kDa Itc1p proteins was expressed. One version of MultiBac was created with both proteins integrated at the attTn7 site, and a second version with Isw2p integrated at the attTn7 site and Itc1p inserted at the LoxP site. […] For further detail see FIG. 8.

The values that follow come from US20160177336A1 (EIDGENOESSISCHE TECHNISCHE HOCHSCHULE ZURICH, published 2016).

B1: Isw2p (other, yeast, UniProt Q08773 1-1120, looked up)
chain: MTTQQEEQRSDTKNSKSESPSEVLVDTLDSKSNGSSDDDNIGQSEELSDKEIYTVEDRPPEYWAQRKKKFVLDVDPKYAKQKDKSDTYKRFKYLLGVTDLFRHFIGIKAKHDKNIQKLLKQLDSDANKLSKSHSTVSSSSRHHRKTEKEEDAELMADEEEEIVDTYQEDIFVSESPSFVKSGKLRDYQVQGLNWLISLHENKLSGILADEMGLGKTLQTISFLGYLRYVKQIEGPFLIIVPKSTLDNWRREFLKWTPNVNVLVLHGDKDTRADIVRNIILEARFDVLITSYEMVIREKNALKRLAWQYIVIDEAHRIKNEQSALSQIIRLFYSKNRLLITGTPLQNNLHELWALLNFLLPDIFGDSELFDEWFEQNNSEQDQEIVIQQLHSVLNPFLLRRVKADVEKSLLPKIETNVYVGMTDMQIQWYKSLLEKDIDAVNGAVGKREGKTRLLNIVMQLRKCCNHPYLFEGAEPGPPYTTDEHLIFNSGKMIILDKLLKRLKEKGSRVLIFSQMSRLLDILEDYCYFRDFEYCRIDGSTSHEERIEAIDEYNKPNSEKFVFLLTTRAGGLGINLVTADTVILFDSDWNPQADLQAMDRAHRIGQKKQVHVYRFVTENAIEEKVIERAAQKLRLDQLVIQQGTGKKTASLGNSKDDLLDMIQFGAKNMFEKKASKVTVDADIDDILKKGEQKTQELNAKYQSLGLDDLQKFNGIENQSAYEWNGKSFQKKSNDKVVEWINPSRRERRREQTTYSVDDYYKEIIGGGSKSASKQTPQPKAPRAPKVIHGQDFQFFPKELDALQEKEQLYFKKKVNYKVTSYDITGDIRNEGSDAEEEEGEYKNAANTEGHKGHEELKRRIEEEQEKINSAPDFTQEDELRKQELISKAFTNWNKRDFMAFINACAKYGRDDMENIKKSIDSKTPEEVEVYAKIFWERLKEINGWEKYLHNVELGEKKNEKLKFQETLLRQKIEQCKHPLHELIIQYPPNNARRTYNTLEDKFLLLAVNKYGLRADKLYEKLKQEIMMSDLFTFDWFIKTRTVHELSKRVHTLLTLIVREYEQPDANKKKRSRTSATREDTPLSQNESTRASTVPNLPTTMVTNQKDTNDHVDKRTKIDQEA
notes: Co-expressed with Itc1p in insect cells from MultiBac baculovirus; also called 130 kDa Isw2p; subunit of the yeast Isw2 chromatin remodelling complex
As for B1, the binding result is recorded as “binds”.
